Source: patent publication US7265267

Molecular target: CDK complexes from A. thaliana purified on p13suc1 sepharose beads
Experiment: cell-based or functional assay

B1: Purified recombinant FL66 protein (E. coli, FL66pET21d), starting at methionine 11 (protein)
chain: MEVSKATAPSPGVRTRAAKTLALKRLNSSAADSALPNDSSCYLQLRSRRLEKPSSLIEPKQPPRVHRSGIKESGSRSRVDSVNSVPVAQSSNEDECFDNFVSVQVSCGENSLGFESRHSTRESTPCNFVEDMEIMVTPGSSTRSMCRATKEYTREQDNVIPTTSEMEEFFAYAEQQQQRLFMEKYNFDIVNDIPLSGRYEWVQVKP
CDK activity measured using histone H1 as substrate, compared to a control sample without FL66; 10 nM FL66 (% of the control): 82
CDK activity measured using histone H1 as substrate, compared to a control sample without FL66; 100 nM FL66 (% of the control): 74
CDK activity measured using histone H1 as substrate, compared to a control sample without FL66; 1 uM FL66 (% of the control): 56
CDK activity measured using histone H1 as substrate, compared to a control sample without FL66; 10 uM FL66 (% of the control): 12
kinase activity of the CDK fraction bound to p13suc1 beads, FL66 added prior to washing of the beads; 0.1 uM FL66 (% of the control): 81
kinase activity of the CDK fraction bound to p13suc1 beads, FL66 added prior to washing of the beads; 10 uM FL66 (% of the control): 35
